Results: article PMC9482650, “Quantitative fragmentomics allow affinity mapping of interactomes” (Nature Communications, 2022)

T1: NHERF3_4, Q5T2W1
T1 sequence (Q5T2W1 373-468, limits assumed, looked up): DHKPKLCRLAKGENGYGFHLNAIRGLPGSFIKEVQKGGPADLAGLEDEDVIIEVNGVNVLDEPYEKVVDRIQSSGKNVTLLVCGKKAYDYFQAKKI

T2: SNTB1, Q13884
T2 sequence (Q13884 107-205, limits assumed, looked up): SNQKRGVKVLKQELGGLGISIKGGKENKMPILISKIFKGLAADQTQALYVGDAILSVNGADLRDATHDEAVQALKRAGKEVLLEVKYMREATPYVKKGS

T3: PDZRN3_1, Q9UPQ7
T3 sequence (Q9UPQ7 244-349, limits assumed, looked up): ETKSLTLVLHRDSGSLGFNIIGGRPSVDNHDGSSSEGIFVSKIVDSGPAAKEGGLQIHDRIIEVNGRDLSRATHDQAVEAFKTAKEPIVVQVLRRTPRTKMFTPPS

T4: LIN7B, Q9HAP6
T4 sequence (Q9HAP6 88-185, limits assumed, looked up): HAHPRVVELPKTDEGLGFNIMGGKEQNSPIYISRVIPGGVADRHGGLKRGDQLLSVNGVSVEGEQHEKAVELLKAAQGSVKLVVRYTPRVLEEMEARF

T5: LNX2_3, Q8N448
T5 sequence (Q8N448 463-564, limits assumed, looked up): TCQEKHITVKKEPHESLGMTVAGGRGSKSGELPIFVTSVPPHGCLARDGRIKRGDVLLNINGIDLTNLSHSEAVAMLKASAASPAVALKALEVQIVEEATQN

T6: HTRA4, P83105
T6 sequence (P83105 378-476, limits assumed, looked up): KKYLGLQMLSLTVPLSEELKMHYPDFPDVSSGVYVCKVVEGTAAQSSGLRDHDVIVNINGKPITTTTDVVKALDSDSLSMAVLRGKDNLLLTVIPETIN

T7: GRIP1_4, Q9Y3R0
T7 sequence (Q9Y3R0 467-571, limits assumed, looked up): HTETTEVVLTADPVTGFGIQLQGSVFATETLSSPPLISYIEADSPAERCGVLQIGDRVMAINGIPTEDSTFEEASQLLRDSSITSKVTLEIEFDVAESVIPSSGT

T8: SNTG2, Q9NY99
T8 sequence (Q9NY99 68-166, limits assumed, looked up): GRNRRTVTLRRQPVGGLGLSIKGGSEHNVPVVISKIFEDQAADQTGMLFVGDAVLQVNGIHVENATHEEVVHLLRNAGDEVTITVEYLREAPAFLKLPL

T9: LIN7C, Q9NUP9
T9 sequence (Q9NUP9 88-185, limits assumed, looked up): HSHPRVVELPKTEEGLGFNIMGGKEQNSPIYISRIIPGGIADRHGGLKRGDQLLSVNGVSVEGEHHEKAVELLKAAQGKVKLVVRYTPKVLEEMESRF

T10: PDZD2_2, O15018
T10 sequence (O15018 329-429, limits assumed, looked up): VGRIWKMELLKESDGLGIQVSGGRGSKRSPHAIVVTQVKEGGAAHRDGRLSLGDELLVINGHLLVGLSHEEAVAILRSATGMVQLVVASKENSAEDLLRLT

T11: APBA2_2, Q99767
T11 sequence (Q99767 654-744, limits assumed, looked up): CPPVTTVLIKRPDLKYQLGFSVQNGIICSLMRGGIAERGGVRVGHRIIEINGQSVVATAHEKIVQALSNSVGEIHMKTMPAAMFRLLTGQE

T12: ARHGAP21, Q5T5U3
T12 sequence (Q5T5U3 45-169, limits assumed, looked up): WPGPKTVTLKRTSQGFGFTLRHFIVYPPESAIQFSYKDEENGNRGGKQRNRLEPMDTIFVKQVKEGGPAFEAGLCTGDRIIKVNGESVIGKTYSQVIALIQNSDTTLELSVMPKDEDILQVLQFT


What was measured:
Test in all cases: holdup assay
Set-up in all cases: key: below the threshold = too weak to quantify, mostly under pKd 3.1 to 4
Conditions in all cases: plain residues with an end cap or a label only (N-terminal biotin on a linker: ado-ado)
[1] = molecular target: MAGI2_4, Q86UL8
Chain of MAGI2_4, Q86UL8 (Q86UL8 772-865): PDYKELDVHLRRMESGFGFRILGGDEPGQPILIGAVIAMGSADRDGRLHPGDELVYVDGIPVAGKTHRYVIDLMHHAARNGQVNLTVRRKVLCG

[2] = molecular target: DLG4_3, P78352
Chain of DLG4_3, P78352 (P78352 306-403): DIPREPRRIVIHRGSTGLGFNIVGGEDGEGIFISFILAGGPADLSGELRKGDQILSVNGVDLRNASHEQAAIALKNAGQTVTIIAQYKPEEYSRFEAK

[3] = molecular target: LNX1_2, Q8TBB1
Chain of LNX1_2, Q8TBB1 (Q8TBB1 371-470): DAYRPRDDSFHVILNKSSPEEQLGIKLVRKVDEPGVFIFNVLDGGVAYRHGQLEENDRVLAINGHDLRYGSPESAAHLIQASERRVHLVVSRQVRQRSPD

[4] = molecular target: SCRIB_2, Q14160
Chain of SCRIB_2, Q14160 (Q14160 857-960): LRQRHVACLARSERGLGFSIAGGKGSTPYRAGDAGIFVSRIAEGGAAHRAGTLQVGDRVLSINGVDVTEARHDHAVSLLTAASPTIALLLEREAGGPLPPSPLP

[5] = molecular target: LAP2, Q96RT1
Chain of LAP2, Q96RT1 (Q96RT1 other isoform, or with tags, fused parts or gaps): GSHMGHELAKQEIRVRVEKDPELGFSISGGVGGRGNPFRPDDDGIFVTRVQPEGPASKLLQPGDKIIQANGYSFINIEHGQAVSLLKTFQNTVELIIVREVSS

[6] = molecular target: T1, NHERF3_4, Q5T2W1
[7] = molecular target: Inadl_6, Q8NI35
Chain of Inadl_6, Q8NI35 (Q8NI35 1058-1167): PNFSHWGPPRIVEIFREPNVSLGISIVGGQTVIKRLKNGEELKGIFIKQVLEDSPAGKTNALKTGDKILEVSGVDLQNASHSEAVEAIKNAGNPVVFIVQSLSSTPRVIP

[8] = molecular target: T2, SNTB1, Q13884
[9] = molecular target: DLG1_3, Q12959
Chain of DLG1_3, Q12959 (Q12959 457-571): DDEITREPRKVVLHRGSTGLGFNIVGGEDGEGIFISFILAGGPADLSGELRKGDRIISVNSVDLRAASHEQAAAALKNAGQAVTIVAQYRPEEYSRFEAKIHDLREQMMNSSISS

[10] = molecular target: Inadl_3, Q8NI35
Chain of Inadl_3, Q8NI35 (Q8NI35 359-469): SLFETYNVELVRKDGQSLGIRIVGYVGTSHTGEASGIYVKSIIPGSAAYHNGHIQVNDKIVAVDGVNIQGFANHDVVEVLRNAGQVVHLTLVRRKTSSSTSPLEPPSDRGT

[11] = molecular target: DLG1_2, Q12959
Chain of DLG1_2, Q12959 (Q12959 314-412): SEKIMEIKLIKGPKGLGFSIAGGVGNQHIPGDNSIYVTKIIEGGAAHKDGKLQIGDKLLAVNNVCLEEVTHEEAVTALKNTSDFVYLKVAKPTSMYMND

[12] = molecular target: T3, PDZRN3_1, Q9UPQ7
[13] = molecular target: T4, LIN7B, Q9HAP6
[14] = molecular target: TJP1_3, Q07157
Chain of TJP1_3, Q07157 (Q07157 416-512): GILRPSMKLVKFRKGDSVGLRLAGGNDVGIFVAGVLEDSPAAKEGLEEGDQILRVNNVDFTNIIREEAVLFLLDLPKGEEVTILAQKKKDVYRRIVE

[15] = molecular target: T5, LNX2_3, Q8N448
[16] = molecular target: T6, HTRA4, P83105
[17] = molecular target: T7, GRIP1_4, Q9Y3R0
[18] = molecular target: T8, SNTG2, Q9NY99
[19] = molecular target: IL16_4, Q14005
Chain of IL16_4, Q14005 (Q14005 1229-1329): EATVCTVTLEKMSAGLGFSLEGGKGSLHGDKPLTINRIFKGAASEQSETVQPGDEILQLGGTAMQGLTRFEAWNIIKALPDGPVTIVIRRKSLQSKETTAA

[20] = molecular target: T9, LIN7C, Q9NUP9
[21] = molecular target: T10, PDZD2_2, O15018
[22] = molecular target: FRMPD2_1, Q68DX3
Chain of FRMPD2_1, Q68DX3 (Q68DX3 770-861): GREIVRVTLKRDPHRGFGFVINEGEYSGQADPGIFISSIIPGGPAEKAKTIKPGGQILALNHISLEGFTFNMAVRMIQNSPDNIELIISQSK

[23] = molecular target: T11, APBA2_2, Q99767
[24] = molecular target: LNX1_3, Q8TBB1
Chain of LNX1_3, Q8TBB1 (Q8TBB1 500-596): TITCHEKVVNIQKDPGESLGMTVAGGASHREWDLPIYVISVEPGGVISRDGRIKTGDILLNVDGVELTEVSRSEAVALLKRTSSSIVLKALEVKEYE

[25] = molecular target: T12, ARHGAP21, Q5T5U3

Row | pKd [1] | pKd [2] | pKd [3] | pKd [4] | pKd [5] | pKd [6] | pKd [7] | pKd [8] | pKd [9] | pKd [10] | pKd [11] | pKd [12] | pKd [13] | pKd [14] | pKd [15] | pKd [16] | pKd [17] | pKd [18] | pKd [19] | pKd [20] | other results | Binder
1 | below the threshold | below the threshold | below the threshold | below the threshold | below the threshold | below the threshold | below the threshold | below the threshold | below the threshold | 4.8 | 3.56 | below the threshold | 3.56 | below the threshold | below the threshold | 4.97 | below the threshold | below the threshold | 3.77 | below the threshold | pKd [21]: 3.75; pKd [22]: below the threshold; pKd [23]: below the threshold; pKd [24]: below the threshold; pKd [25]: below the threshold | DDEDRLVIEI [ZNF831, Q5JPB2]
2 | 3.7 | below the threshold | 4.53 | below the threshold | below the threshold | 3.48 | below the threshold | below the threshold | 3.76 | 3.55 | below the threshold | 3.51 | below the threshold | below the threshold | below the threshold | 4.36 | below the threshold | below the threshold | 3.77 | below the threshold | pKd [21]: below the threshold; pKd [22]: 4.36; pKd [23]: below the threshold; pKd [24]: 3.61; pKd [25]: 4 | QMNQTLPVQV [EPHB3, P54753]
3 | below the threshold | below the threshold | below the threshold | below the threshold | below the threshold | below the threshold | below the threshold | below the threshold | below the threshold | below the threshold | below the threshold | below the threshold | below the threshold | below the threshold | below the threshold | below the threshold | below the threshold | below the threshold | below the threshold | below the threshold | pKd [21]: below the threshold; pKd [22]: below the threshold; pKd [23]: below the threshold; pKd [24]: below the threshold; pKd [25]: below the threshold | IPLDGETEEL [MYOZ1, Q9NP98]
4 | below the threshold | 4.11 | below the threshold | 4.43 | 3.94 | 3.95 | 4.31 | 4.88 | 4.1 | 3.59 | 4.88 | 5.2 | 4.45 | below the threshold | below the threshold | below the threshold | below the threshold | 4.8 | 3.61 | 4.43 | pKd [21]: 3.56; pKd [22]: below the threshold; pKd [23]: below the threshold; pKd [24]: below the threshold; pKd [25]: 4.17 | RHGSCVETSL [TMEM151B, Q8IW70]
